For series [1], the target named is T1, PU.1 ETS domain (PU.1ΔN167) (murine, UniProt P17433 167-272). Description: fluorescence anisotropy. For orientation: In fluorescence polarisation assays a small probe gives low polarisation when free and higher when bound to something large.
Series [2] concerns the target T1, PU.1 ETS domain (PU.1ΔN167). Description: competition.
For series [3] the target is unchanged. Description: competition. The source holds these as a separate data set.

Among the data in article PMC4872103 are binding result and binding signal values, retold here.

B1: Alexa Fluor 488 end-labeled duplex (dsDNA)
DNA 1: CAAGCGGAAGTGAG
DNA 2: CTCACTTCCGCTTG
As to B1, the binding result in series [1] is recorded as “binds”.

B2: NS (dsDNA)
DNA 1: GCGAATAAGCGAGAGTGAAACCG
DNA 2: CGGTTTCACTCTCGCTTATTCGC
Take B2: the binding result in series [2] was “no binding”.

B3: [5']AGC (dsDNA)
DNA 1: GCGAATAAGCGGAAGTGAAACCG
DNA 2: CGGTTTCACTTCCGCTTATTCGC
In the case of B3, the binding signal in series [3] was ~1 Kd ratio to Cy3-[5']AGC (equal within experimental uncertainty).
